Experimental data from PMC2194224.

Target: purified M22 (Sir22) protein (Streptococcus pyogenes)
Test: radioligand binding

## human C4b-binding protein (C4BP) (from UniProt P04003 49-597; P20851 18-252) (complex)
  percent of radiolabeled ligand bound in the absence of antiserum: 25%
